Eight molecules from publication PMC4364671, “Identification and Characterization of Bifunctional Proline Racemase/Hydroxyproline Epimerase from Archaea: Discrimination of Substrates and Molecular Evolution” (PLoS ONE, 2015) can be followed below.

Data set [1] addresses ProR-like protein (OCC_00372) from Thermococcus litoralis, bifunctional proline racemase/hydroxyproline epimerase (Thermococcus litoralis DSM 5473). Description: SEC; analytic gel filtration by HPLC on TSKgel G3000SWXL, 50 mM Tris-HCl pH 8.0, 1 ml/min, high molecular weight calibration kit; data not shown. On the technique in general: In gel filtration, larger molecules generally elute earlier.

In another data set the target is T1, HjProR (Haloarcula japonica, UniProt M0LMI3).
T1 construct: gene C444_02196; full length, N-terminal His6 tag kept (pETDuet-1), E. coli; dimer; possible partial proteolysis
T1 sequence (M0LMI3 entry or part of it): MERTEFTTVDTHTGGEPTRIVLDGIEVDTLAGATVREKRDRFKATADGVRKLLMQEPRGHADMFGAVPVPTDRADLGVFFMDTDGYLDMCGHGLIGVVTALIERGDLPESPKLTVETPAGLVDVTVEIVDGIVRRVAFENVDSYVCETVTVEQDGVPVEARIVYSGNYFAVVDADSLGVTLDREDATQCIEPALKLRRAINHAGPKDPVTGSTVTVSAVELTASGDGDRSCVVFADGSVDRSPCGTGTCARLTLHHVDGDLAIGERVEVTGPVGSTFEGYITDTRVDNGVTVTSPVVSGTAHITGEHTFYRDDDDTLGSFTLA
In words: chiral HPLC of NBD-F derivatives, racemase activity. The data set is classed as biochemical.

The target of data set [2] is ProR-like protein from Ferroplasma acidiphilum (Ferroplasma acidiphilum DSM 12658). Description: SEC; analytic gel filtration by HPLC on TSKgel G3000SWXL, 50 mM Tris-HCl pH 8.0, 1 ml/min, high molecular weight calibration kit; data not shown.
In data set [3] the target is T2, TlProR (bifunctional proline racemase/hydroxyproline epimerase) (Thermococcus litoralis, UniProt H3ZMH5).
T2 construct: gene OCC_00372
T2 sequence (H3ZMH5 1-331): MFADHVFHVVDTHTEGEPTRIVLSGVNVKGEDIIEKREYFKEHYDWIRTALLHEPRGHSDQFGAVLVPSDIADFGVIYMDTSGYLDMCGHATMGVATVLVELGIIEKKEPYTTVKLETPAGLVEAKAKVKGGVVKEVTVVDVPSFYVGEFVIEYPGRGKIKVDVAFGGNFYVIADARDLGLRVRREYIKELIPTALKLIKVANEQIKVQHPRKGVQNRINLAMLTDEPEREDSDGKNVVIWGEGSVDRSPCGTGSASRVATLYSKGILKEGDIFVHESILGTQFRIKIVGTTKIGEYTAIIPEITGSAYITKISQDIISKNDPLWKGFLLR
In words: HPLC racemase assay with L-proline, chiral separation. The data set is classed as biochemical.

In data set [4] the target is Hydroxyproline 2-epimerase from Azospirillum brasilense (Azospirillum brasilense ATCC 29145). Description: SEC; analytic gel filtration by HPLC on TSKgel G3000SWXL, 50 mM Tris-HCl pH 8.0, 1 ml/min, high molecular weight calibration kit; data not shown.
Data set [5] concerns the target ProR-like protein from Haloarcula japonica (Haloarcula japonica DSM 6131). The data set is described as above.
Data set [6] concerns the molecule itself. Described as above.
Substrate in data set [7]: O=C(O)[C@@H]1CCCN1
In words: purified protein.

Substrate in data set [8]: O=C(O)[C@@H]1C[C@@H](O)CN1
Description: purified protein.

Substrate in data set [9]: O=C(O)[C@H]1CCCN1
In words: purified protein.

Substrate in data set [10]: O=C(O)[C@H]1C[C@@H](O)CN1
Description: purified protein.

Substrate in data set [11]: O=C(O)[C@H]1NCC[C@@H]1O
Description: purified protein.

The stoichiometry N is the number of molecules, sites or subunits per partner or assembly. Consider “ProR-like protein (OCC_00372) from Thermococcus litoralis, bifunctional proline racemase/hydroxyproline epimerase (enzyme)”, for which, in data set [1], the stoichiometry N amounted to 2.
In general, IC50 refers to the point on the concentration scale where inhibition reaches its midpoint. Read a low IC50 as higher potency. As for `O=C(O)c1ccc[nH]1` [pyrrole-2-carboxylate], on HjProR, the concentration for half-maximal inhibition (IC50) turned out to be 295 µM.
“ProR-like protein from Ferroplasma acidiphilum (enzyme)” displayed a stoichiometry N in [2] of 2.
In data set [3], `O=C(O)c1ccc[nH]1` [PYC, pyrrole-2-carboxylate] returned an IC50 of 217 µM.
Molecule “Hydroxyproline 2-epimerase from Azospirillum brasilense (enzyme)” yielded a stoichiometry N in data set [4] of 2.
Turning to “ProR-like protein from Haloarcula japonica (enzyme)”, in data set [5], the stoichiometry N is 2.

B1: Proline racemase from Clostridium difficile (enzyme, Clostridium difficile 630, UniProt Q17ZY4 1-335, looked up)
chain: MKFSRSIQAIDSHTAGEATRIVVGGIPNIKGNSMPEKKEYLEENLDYLRTAIMLEPRGHNDMFGSVMTQPCCPDADFGIIFMDGGGYLNMCGHGTIGAMTAAIETGVVPAVEPVTHVVMEAPAGIIRGDVTVVDGKAKEVSFLNVPAFLYKEGVEVDLPGVGTVKFDISFGGSFFAIIHASQLGLKIEPQNAGKLTELAMKLRDIINEKIEIQHPTLAHIKTVDLVEIYDEPTHPEATYKNVVIFGQGQVDRSPCGTGTSAKLATLHAKGELKVGEKFVYESILGTLFKGEIVEETKVADFNAVVPKITGSAYITGFNHFVIDEEDPLKHGFILK
notes: Proline racemase CdProR of Clostridium difficile 630, gene CD630_32370 amplified from genomic DNA into pETDuet-1; calculated mass with His6-tag 37.7 kDa; also called CdProR; source: E. coli BL21-CodonPlus(DE3)-RIL, purified (Ni-NTA); not shown: His6, N-terminal, kept
As for B1, in data set [6], the “stoichiometry N” value was determined as 2.

B2: TlProR (bifunctional proline racemase/hydroxyproline epimerase) (Thermococcus litoralis DSM 5473) (protein)
chain: T2 sequence (H3ZMH5 1-331)
One may read the Km as the substrate concentration at which the rate is half of its maximum. What is called kcat is the maximal rate divided by the concentration of active sites. One may read the kcat/Km as the turnover number divided by the Michaelis constant. Consider B2, for which the Km was 1210 µM in “purified protein [7]”; 6080 µM in the data set “purified protein [8]”; 91.9 µM in “purified protein [9]”; 6650 µM in “purified protein [10]”; 502 µM in “purified protein [11]”. In addition, the kcat in the data set “purified protein [7]” worked out at 2.78 s⁻¹; in the data set “purified protein [8]”, 12.1 s⁻¹; in “purified protein [9]”, 2.22 s⁻¹; in the data set “purified protein [10]”, 3.83 s⁻¹; in the data set “purified protein [11]”, 3.6 s⁻¹. Moreover, the kcat/Km in “purified protein [7]” is 2300 M⁻¹ s⁻¹; in “purified protein [8]”, 2030 M⁻¹ s⁻¹; in the data set “purified protein [9]” it was 26200 M⁻¹ s⁻¹; in “purified protein [10]” it was 580 M⁻¹ s⁻¹; in the data set “purified protein [11]”, 7170 M⁻¹ s⁻¹.
